According to US12325863B2, “MDA-7/IL-24 secretory variants and methods of use” (Virginia Commonwealth University, priority 2018, dated 2025):
Numbering of substitutions follows the chain as printed. In names and notes the source's numbering stands.

Legend:
[1] = Sabutoclax and BI-97D6 in combination with MDA-7/IL-24; details: combined with MDA-7/IL-24; earlier observation referred to
Description: To test a multi-target approach for treatment of prostate cancer bone metastases, experiments were conducted to target Mcl-1 inhibition and investigate the effects on NG-mda-7/IL-24 efficacy. […] In addition to these inhibitors, three commercially available targeted inhibitors were evaluated to determine potential synergistic effects with MDA-7/IL-24. […] Next, the therapeutic effect of MDA-7/IL-24 protein in combination with BI-97D6 was tested, in male athymic nude mice injected by the intracardiac route with human prostate cancer PC3-ML cells, resulting in bone metastases.

[2] = system: human prostate cancer PC3-ML cells; experiment: PC3-ML intracardiac bone metastasis model in athymic nude mice; format: in vivo; details: single agent, versus control group
Description: To test a multi-target approach for treatment of prostate cancer bone metastases, experiments were conducted to target Mcl-1 inhibition and investigate the effects on NG-mda-7/IL-24 efficacy. Using NMR (nuclear magnetic resonance) and computational biology, two Mcl-1 inhibitors were identified (Sabutoclax and BI-97D6) and their activity was validated in immune competent mice in combination with MDA-7/IL-24. In addition to these inhibitors, three commercially available targeted inhibitors were evaluated to determine potential synergistic effects with MDA-7/IL-24. The three inhibitors were UMI-77 (showing selectivity to Mcl-1 over other members of the Bcl-2 family), Marinopyrrole A (selective inhibitor of Mcl-1), and A-1210477. […] Mcl-1 expression was elevated by 1.7-fold in RM1-BM (RM1-BM cells selected for enhanced metastasis to bone) as compared to RM1 cells, indicating functional relevance of Mcl-1 in this metastatic process. […] This further supported the cancer-specificity of specific Mcl-1 inhibitors. Next, the therapeutic effect of MDA-7/IL-24 protein in combination with BI-97D6 was tested, in male athymic nude mice injected by the intracardiac route with human prostate cancer PC3-ML cells, resulting in bone metastases.

[3] = system: RWPE-1 cells; experiment: MTT assay with Mcl-1 inhibitors, RWPE-1; format: cell-based, human; details: alone or in combination with MDA-7/IL-24, 48 hrs; FIG. 26C
Description: Human (DU-145) CaP cells were treated with different targeted small molecules alone (FIG. 26A) or in combination with MDA-7/IL-24 (FIG. 26B), and after 48 hrs cell growth was measured by MTT. * indicates statistical significance vs. respective control group. Immortalized primary normal human prostate epithelial cells, RWPE-1, were treated with different combinations as indicated and MTT assays were performed at 48 hrs (FIG. 26C). Murine (RMI-BM) CaP cells were treated with different targeted small molecules alone (FIG. 26D) or in combination with MDA-7/IL-24 (FIG. 26E), and after 48 hrs. cell growth was measured by MTT.
To test a multi-target approach for treatment of prostate cancer bone metastases, experiments were conducted to target Mcl-1 inhibition and investigate the effects on NG-mda-7/IL-24 efficacy. Using NMR (nuclear magnetic resonance) and computational biology, two Mcl-1 inhibitors were identified (Sabutoclax and BI-97D6) and their activity was validated in immune competent mice in combination with MDA-7/IL-24. In addition to these inhibitors, three commercially available targeted inhibitors were evaluated to determine potential synergistic effects with MDA-7/IL-24. The three inhibitors were UMI-77 (showing selectivity to Mcl-1 over other members of the Bcl-2 family), Marinopyrrole A (selective inhibitor of Mcl-1), and A-1210477. […]

[4] = system: HeLa cells; experiment: MTT assay following transfection of HeLa cells with constructs; format: cell-based, human; details: for proliferation (MTT): following transfection of HeLa cells, FIG. 14
Text: (§1) Next, lysine 122 of MDA-7/IL-24 was converted to arginine by site directed mutagenesis using forward primer (5′-[…]-3′) (SEQ ID NO: 19) and reverse primer (5′-[…]-3′) (SEQ ID NO: 20). […] These enzymes are capable of reducing the tetrazolium dye MTT 3-(4,5-dimethylthiazol-2-yl)-2,5-diphenyltetrazolium bromide to its insoluble formazan, which has a purple color.
(§2) Having an MDA-7/IL-24 construct with enhanced protein secretion as well as enhanced protein stability may be very valuable as a potential gene therapeutic for cancer. Accordingly, lysine 122 was mutated to arginine in the Insulin(sp)-MDA-7 construct using site-directed mutagenesis. […] PARP cleavage and the expression of GRP-78 were also assessed in DU-145 cells following transfection with MDA-7(sp)-MDA-7 (wild type MDA-7 signal peptide), Insulin(sp)-MDA-7, MDA-7(sp)-MDA-7(K122R) and Insulin(sp)-MDA-7(K122R) (FIG. 13).
(§3) PARP cleavage and the expression of GRP-78 were also evaluated in DU-145 cells following transfection with these four constructs, the results for which are shown in FIG. 20.

[5] = system: DU-145 cells; experiment: M4 expression in conditioned media of transfected DU-145 cells (ELISA); format: cell-based, human; details: compared to the other 3 signal peptides, FIG. 17
Description: To determine if different sequence motifs could enhance the secretion of M4 over Flt-3(sp)-M4, three additional signal peptides linked to M4 were introduced and protein secretion was assessed. The four signal peptides tested were endogenous human MDA-7/IL-24, human IL-2, human Insulin, and Flt-3 signal peptides. The constructs were designated MDA-7(sp)-M4 (wildtype MDA-7/IL-24 secretory peptide), IL-2(sp)-M4, Insulin(sp)-M4, and Flt-3(sp)-M4, respectively, and a schematic illustration is shown in FIG. 16. Each of these constructs also included a Histidine-tag. These constructs were transfected into DU-145 cells and assessed for expression of M4 in the conditioned media (FIG. 17) and at the transcript level (FIG. 18). An MDA-7/IL-24 antibody and RT-Q-PCR primers able to detect M4 were used to assess M4 expression.
as §3

[6] = system: SARI; experiment: SARI expression at the transcript level in transfected DU-145 cells; format: cell-based, human
Description: (§4) SARI expression was determined at the transcript level in DU-145 cells after transfection with the indicated plasmids. […] The protein expression of MDA-7/IL-24 from the conditioned media (FIG. 5) and cell lysates (FIG. 6) of HeLa cells transfected with full length MDA-7 and Insulin(sp)-MDA-7 was assayed.
as §2, §3

[7] = system: HeLa cells; experiment: MTT assay, HeLa cells treated with conditioned media from transfected HeLa cells; format: cell-based, human; details: vs control conditioned media, FIG. 8
Text: as §1

[8] = system: HeLa cells; experiment: MDA-7/IL-24 protein in conditioned media and lysates of transfected HeLa cells (Western blotting); format: cell-based, human
Description: as §4, §1

[9] = system: DU-145 cells; experiment: MTT assay, DU-145 cells treated with conditioned media from transfected HeLa cells; format: cell-based, human; details: vs control conditioned media, FIG. 9
Text: as §1

[10] = system: DU-145 cells; experiment: MDA-7/IL-24 transcript level (RTQ-PCR) in transfected DU-145 cells; format: cell-based, human; details: DU-145 cells transfected; FIG. 11
[11] = system: DU-145 cells; experiment: ELISA of MDA-7/IL-24 protein in conditioned media of transfected DU-145 cells; format: cell-based, human; details: DU-145 cells transfected; FIG. 10
Description: In an effort to enhance its anti-cancer activity, genetic engineering experiments were conducted to enhance MDA-7/IL-24 secretion. Five different signal peptides (abbreviated “sp”) were introduced, linked to MDA-7/IL-24, and assessed for protein secretion. The five signal peptides tested were endogenous human MDA-7/IL-24, human IL-2, human Insulin, Flt-3 and human BM40 (osteonectin/SPARC) signal peptides. The constructs were designated MDA-7(sp)-MDA-7 (wild type MDA-7 signal peptide), IL-2(sp)-MDA-7, Insulin(sp)-MDA-7, Flt-3(sp)-MDA-7 and BM40(sp)-MDA-7, respectively. Each of these constructs also included a Histidine-tag. These constructs were transfected into DU-145 cells (human prostate cancer cells).
The presence of MDA-7/IL-24 in the conditioned media was assessed by enzyme-linked immunosorbent assay (ELISA) and results are shown in FIG. 2.
as §2

[12] = system: DU-145 cells; experiment: M4 protein in lysate and conditioned media of transfected DU-145 cells; format: cell-based, human; details: K122R versus Flt-3(sp)-M4, FIG. 22
Text: (§5) As noted in Example 1, improvements were obtained by mutating lysine at position 122 to arginine in full-length MDA-7/IL-24. The corresponding lysine was identified in M4 and mutated to arginine using site directed mutagenesis using forward primer (5′-[…]-3′) (SEQ ID NO: 19) and reverse primer (5′-[…]-3′) (SEQ ID NO: 20). Next, Flt-3(sp)-M4 and Flt-3(sp)-M4(K122R) were transfected into DU-145 cells. […] The conditioned media from transfected IM-PHFA (immortalized primary human fetal astrocytes) cells was added to DU-145 cells and MTT assays were performed (FIG. 24).

[13] = system: DU-145 cells; experiment: MTT assay, DU-145 cells treated with conditioned media from transfected IM-PHFA cells; format: cell-based, human; details: compared to the control, FIG. 24
Text: as §5

**Q.** With BI-97D6 [reference compound] as the molecule, how does the antitumor synergy [1] read?
**A.** antitumor synergy

**Q.** What about the bone metastases [2] of the same molecule?
**A.** statistically significant inhibition of bone metastases

**Q.** Which “anti-proliferative effects (MTT)” value [3] does the source give for `O=C(c1ccccc1O)c1[nH]c(Cl)c(Cl)c1-n1c(C(=O)c2ccccc2O)cc(Cl)c1Cl` [Marinopyrrole A] here?
**A.** anti-proliferative effects

B1: Insulin(sp)-M4: human Insulin signal peptide linked to M4; encoded by SEQ ID NO: 12 (protein)
chain: MALWMRLLPLLALLALWGPDPAAAHHHHHHENLYFQGMESCYLVHTLLEFYLKTVFKNYHNRTVEVRTLKSFSTLANNFVLIVSQLQPSQENEMFSIRDSAHRRFLLFRRAFKQLDVEAALTKALGEVDILLTWMQKFYKL
**Q.** Which “growth (MTT)” value ([4]; M4 constructs, transfection of HeLa cells, FIG. 21) does the source give for B1 here?
**A.** growth suppression

**Q.** And the M4 protein secretion [5]?
**A.** enhanced M4 protein secretion to a greater extent

**Q.** What about the SARI expression ([6]; DU-145 cells, four signal peptide M4 constructs, FIG. 19) of the same molecule?
**A.** highest SARI expression

B2: MDA-7(sp)-MDA-7(K122R): MDA-7/IL-24 with lysine 122 converted to arginine; encoded by SEQ ID NO: 10 (protein, UniProt Q13007 1-206, looked up, variant K122R)
chain: MNFQQRLQSLWTLARPFCPPLLATASQMQMVVLPCLGFTLLLWSQVSGAQGQEFHFGPCQVKGVVPQKLWEAFWAVKDTMQAQDNITSARLLQQEVLQNVSDAESCYLVHTLLEFYLKTVFRNYHNRTVEVRTLKSFSTLANNFVLIVSQLQPSQENEMFSIRDSAHRRFLLFRRAFKQLDVEAALTKALGEVDILLTWMQKFYKL
modifications: full-length
**Q.** Which “proliferation (MTT)” value [4] does the source give for B2 here?
**A.** decrease in proliferation

**Q.** What about the “proliferation (MTT)” value [7] of the same molecule?
**A.** decrease in proliferation

**Q.** And the “protein in the conditioned media by Western blotting” value ([8]; HeLa cells transfected, FIG. 5)?
**A.** increase in protein

**Q.** What about the “protein in cell lysate by Western blotting” value ([8]; HeLa cells transfected, FIG. 6) of the same molecule?
**A.** increase in protein

**Q.** What about the “proliferation (MTT)” value [9] of the same molecule?
**A.** decrease in proliferation

B3: Insulin(sp)-MDA-7: human Insulin signal peptide linked to MDA-7/IL-24, Histidine-tag; encoded by SEQ ID NO: 6 (protein)
chain: MALWMRLLPLLALLALWGPDPAAAHHHHHHENLYFQGMQEFHFGPCQVKGVVPQKLWEAFWAVKDTMQAQDNITSARLLQQEVLQNVSDAESCYLVHTLLEFYLKTVFKNYHNRTVEVRTLKSFSTLANNFVLIVSQLQPSQENEMFSIRDSAHRRFLLFRRAFKQLDVEAALTKALGEVDILLTWMQKFYKL
**Q.** For B3, which “proliferation (MTT)” value [4] is on record?
**A.** decrease in proliferation

**Q.** And the “proliferation (MTT)” value [7]?
**A.** decrease in proliferation

**Q.** And the “SARI expression at the transcript level” value ([6]; DU-145 cells, five signal peptide MDA-7 constructs, FIG. 4)?
**A.** highest SARI expression

**Q.** And the MDA-7/IL-24 protein secretion ([8]; HeLa cells, versus full length MDA-7, FIGS. 5, 6)?
**A.** dramatic increase in MDA-7/IL-24 protein secretion

**Q.** And the “proliferation (MTT)” value [9]?
**A.** decrease in proliferation

B4: Insulin(sp)-MDA-7(K122R): insulin signal peptide fused to the K122R mutation variant of MDA-7/IL-24; encoded by SEQ ID NO: 11 (protein)
chain: B3 chain with K109R
**Q.** With B4 as the molecule, how does the “MDA-7/IL-24 expression at the transcript level using RTQ-PCR” value [10] read?
**A.** enhanced MDA-7/IL-24 expression

**Q.** What about the “proliferation (MTT)” value [4] of the same molecule?
**A.** decrease in proliferation

**Q.** What about the “MDA-7/IL-24 expression in the conditioned media using ELISA” value [11] of the same molecule?
**A.** enhanced MDA-7/IL-24 expression

**Q.** And the “SARI induction at the transcript level” value ([6]; compared to Insulin(sp)-MDA-7 or MDA-7 containing K122R, FIG. 12)?
**A.** highest SARI induction

B5: Flt-3(sp)-M4(K122R): Flt-3(sp)-M4 with the corresponding lysine mutated to arginine; encoded by SEQ ID NO: 16 (protein)
chain: MTVLAPAWSPTTYLLLLLLLSGSESCYLVHTLLEFYLKTVFRNYHNRTVEVRTLKSFSTLANNFVLIVSQLQPSQENEMFSIRDSAHRRFLLFRRAFKQLDVEAALTKALGEVDILLTWMQRFYKLGGSHHHHHH
**Q.** Which “protein in cell lysates” value [12] does the source give for B5 here?
**A.** increase in protein

**Q.** And the “protein in the conditioned media” value [12]?
**A.** increase in protein

**Q.** And the “cell growth (MTT)” value [13]?
**A.** cell growth suppression

B6: Flt-3(sp)-M4: Flt-3 signal peptide linked to M4; encoded by SEQ ID NO: 14 (protein)
chain: B5 chain with R42K, R122K
**Q.** For B6, which “cell growth (MTT)” value [13] is on record?
**A.** cell growth suppression
